In patent US20240270846A1 (published 2024):

The binders below were run against T1, CD3 epsilon homodimer protein (UniProt P07766 23-126) (assay: SPR Biacore T200, CD3 epsilon homodimer immobilized; vs unaltered GLS3000;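 note: antibody variants flowed as analyte over CD3 epsilon homodimer amine-coupled to a CM4 chip, at 25 °C in HBS-EP+ running buffer, fitted with Biacore T200 Evaluation Software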).
T1 construct: construct not described; homodimer as printed; also called CD3 (CD3 epsilon)
T1 sequence (P07766 23-126): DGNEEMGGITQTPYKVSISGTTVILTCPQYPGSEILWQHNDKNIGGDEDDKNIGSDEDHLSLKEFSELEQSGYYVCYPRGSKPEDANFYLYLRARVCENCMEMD

KD ratio to GLS3000 (Affinity up)	Binder
1.6	GLS3000 R29I (Kabat) L chain altered form, one-arm antibody with CE115HA000 (antibody, human IgG1, kappa, L234A L235A, N297A, name in Kabat numbering, one-arm antibody) heavy: QVQLVESGGGVVQPGRSLRLSCAASGFTFSNAWMHWVRQAPGKGLEWVAQIKAKSNNYATYYAESVKGRFTISRDDSKNSLYLQMNSLKTEDTAVYYCRYVHYGAYYGVDAWGQGTTVTVSSASTKGPSVFPLAPSSKSTSGGTAALGCLVKDYFPEPVTVSWNSGALTSGVHTFPAVLQSSGLYSLSSVVTVPSSSLGTQTYICNVNHKPSNTKVDKKVEPKSCDKTHTCPPCPAPEAAGGPSVFLFPPKPKDTLMISRTPEVTCVVVDVSHEDPEVKFNWYVDGVEVHNAKTKPREEQYASTYRVVSVLTVLHQDWLNGKEYKCKVSNKALPAPIEKTISKAKGQPREPQVYTLPPSRCELTKNQVSLSCAVKGFYPSDIAVEWESNGQPENNYKTTPPVLDSDGSFFLVSKLTVDKSRWQQGNVFSCSVMHEALHNHYTQKSLSLSPDYKDDDDK EPKSSDKTHTCPPCPAPELLGGPSVFLFPPKPKDTLMISRTPEVTCVVVDVSHEDPEVKFNWYVDGVEVHNAKTKPREEQYNSTYRVVSVLTVLHQDWLNGKEYKCKVSNKALPAPIEKTISKAKGQPREPQVCTLPPSRDELTKNQVSLWCLVKGFYPSDIAVEWESNGQPENNYKTTPPVLDSDGSFFLYSKLTVDKSRWQQGNVFSCSVMHEALHNRYTQKSLSLSP light: DIVMTQSPLSLPVTPGEPASISCRSSQSLVHSNINTYLHWYQQKPGQAPRLLIYKVSNRFSGVPDRFSGSGSGTDFTLKISRVEAEDVGVYYCGQGTQVPYTFGQGTKLEIKRTVAAPSVFIFPPSDEQLKSGTASVVCLLNNFYPREAKVQWKVDNALQSGNSQESVTEQDSKDSTYSLSSTLTLSKADYEKHKVYACEVTHQGLSSPVTKSFNRGEC
14	GLS3000 R29P (Kabat) L chain altered form, one-arm antibody with CE115HA000 (antibody, human IgG1, kappa, L234A L235A, N297A, name in Kabat numbering, one-arm antibody) heavy: QVQLVESGGGVVQPGRSLRLSCAASGFTFSNAWMHWVRQAPGKGLEWVAQIKAKSNNYATYYAESVKGRFTISRDDSKNSLYLQMNSLKTEDTAVYYCRYVHYGAYYGVDAWGQGTTVTVSSASTKGPSVFPLAPSSKSTSGGTAALGCLVKDYFPEPVTVSWNSGALTSGVHTFPAVLQSSGLYSLSSVVTVPSSSLGTQTYICNVNHKPSNTKVDKKVEPKSCDKTHTCPPCPAPEAAGGPSVFLFPPKPKDTLMISRTPEVTCVVVDVSHEDPEVKFNWYVDGVEVHNAKTKPREEQYASTYRVVSVLTVLHQDWLNGKEYKCKVSNKALPAPIEKTISKAKGQPREPQVYTLPPSRCELTKNQVSLSCAVKGFYPSDIAVEWESNGQPENNYKTTPPVLDSDGSFFLVSKLTVDKSRWQQGNVFSCSVMHEALHNHYTQKSLSLSPDYKDDDDK EPKSSDKTHTCPPCPAPELLGGPSVFLFPPKPKDTLMISRTPEVTCVVVDVSHEDPEVKFNWYVDGVEVHNAKTKPREEQYNSTYRVVSVLTVLHQDWLNGKEYKCKVSNKALPAPIEKTISKAKGQPREPQVCTLPPSRDELTKNQVSLWCLVKGFYPSDIAVEWESNGQPENNYKTTPPVLDSDGSFFLYSKLTVDKSRWQQGNVFSCSVMHEALHNRYTQKSLSLSP light: DIVMTQSPLSLPVTPGEPASISCRSSQSLVHSNPNTYLHWYQQKPGQAPRLLIYKVSNRFSGVPDRFSGSGSGTDFTLKISRVEAEDVGVYYCGQGTQVPYTFGQGTKLEIKRTVAAPSVFIFPPSDEQLKSGTASVVCLLNNFYPREAKVQWKVDNALQSGNSQESVTEQDSKDSTYSLSSTLTLSKADYEKHKVYACEVTHQGLSSPVTKSFNRGEC
0.9	GLS3000 R29L (Kabat) L chain altered form, one-arm antibody with CE115HA000 (antibody, human IgG1, kappa, L234A L235A, N297A, name in Kabat numbering, one-arm antibody) heavy: QVQLVESGGGVVQPGRSLRLSCAASGFTFSNAWMHWVRQAPGKGLEWVAQIKAKSNNYATYYAESVKGRFTISRDDSKNSLYLQMNSLKTEDTAVYYCRYVHYGAYYGVDAWGQGTTVTVSSASTKGPSVFPLAPSSKSTSGGTAALGCLVKDYFPEPVTVSWNSGALTSGVHTFPAVLQSSGLYSLSSVVTVPSSSLGTQTYICNVNHKPSNTKVDKKVEPKSCDKTHTCPPCPAPEAAGGPSVFLFPPKPKDTLMISRTPEVTCVVVDVSHEDPEVKFNWYVDGVEVHNAKTKPREEQYASTYRVVSVLTVLHQDWLNGKEYKCKVSNKALPAPIEKTISKAKGQPREPQVYTLPPSRCELTKNQVSLSCAVKGFYPSDIAVEWESNGQPENNYKTTPPVLDSDGSFFLVSKLTVDKSRWQQGNVFSCSVMHEALHNHYTQKSLSLSPDYKDDDDK EPKSSDKTHTCPPCPAPELLGGPSVFLFPPKPKDTLMISRTPEVTCVVVDVSHEDPEVKFNWYVDGVEVHNAKTKPREEQYNSTYRVVSVLTVLHQDWLNGKEYKCKVSNKALPAPIEKTISKAKGQPREPQVCTLPPSRDELTKNQVSLWCLVKGFYPSDIAVEWESNGQPENNYKTTPPVLDSDGSFFLYSKLTVDKSRWQQGNVFSCSVMHEALHNRYTQKSLSLSP light: DIVMTQSPLSLPVTPGEPASISCRSSQSLVHSNLNTYLHWYQQKPGQAPRLLIYKVSNRFSGVPDRFSGSGSGTDFTLKISRVEAEDVGVYYCGQGTQVPYTFGQGTKLEIKRTVAAPSVFIFPPSDEQLKSGTASVVCLLNNFYPREAKVQWKVDNALQSGNSQESVTEQDSKDSTYSLSSTLTLSKADYEKHKVYACEVTHQGLSSPVTKSFNRGEC
1.05	GLS3000 R29S (Kabat) L chain altered form, one-arm antibody with CE115HA000 (antibody, human IgG1, kappa, L234A L235A, N297A, name in Kabat numbering, one-arm antibody) heavy: QVQLVESGGGVVQPGRSLRLSCAASGFTFSNAWMHWVRQAPGKGLEWVAQIKAKSNNYATYYAESVKGRFTISRDDSKNSLYLQMNSLKTEDTAVYYCRYVHYGAYYGVDAWGQGTTVTVSSASTKGPSVFPLAPSSKSTSGGTAALGCLVKDYFPEPVTVSWNSGALTSGVHTFPAVLQSSGLYSLSSVVTVPSSSLGTQTYICNVNHKPSNTKVDKKVEPKSCDKTHTCPPCPAPEAAGGPSVFLFPPKPKDTLMISRTPEVTCVVVDVSHEDPEVKFNWYVDGVEVHNAKTKPREEQYASTYRVVSVLTVLHQDWLNGKEYKCKVSNKALPAPIEKTISKAKGQPREPQVYTLPPSRCELTKNQVSLSCAVKGFYPSDIAVEWESNGQPENNYKTTPPVLDSDGSFFLVSKLTVDKSRWQQGNVFSCSVMHEALHNHYTQKSLSLSPDYKDDDDK EPKSSDKTHTCPPCPAPELLGGPSVFLFPPKPKDTLMISRTPEVTCVVVDVSHEDPEVKFNWYVDGVEVHNAKTKPREEQYNSTYRVVSVLTVLHQDWLNGKEYKCKVSNKALPAPIEKTISKAKGQPREPQVCTLPPSRDELTKNQVSLWCLVKGFYPSDIAVEWESNGQPENNYKTTPPVLDSDGSFFLYSKLTVDKSRWQQGNVFSCSVMHEALHNRYTQKSLSLSP light: DIVMTQSPLSLPVTPGEPASISCRSSQSLVHSNSNTYLHWYQQKPGQAPRLLIYKVSNRFSGVPDRFSGSGSGTDFTLKISRVEAEDVGVYYCGQGTQVPYTFGQGTKLEIKRTVAAPSVFIFPPSDEQLKSGTASVVCLLNNFYPREAKVQWKVDNALQSGNSQESVTEQDSKDSTYSLSSTLTLSKADYEKHKVYACEVTHQGLSSPVTKSFNRGEC
